In publication PMC7338481:

Target: Staphylococcal enterotoxin G, wild type (Staphylococcus aureus (staphylococcal)) (UniProt P0A0L8)
Assay: SPR

## Soluble mouse TCR β chain Vβ8.2 protein
  Kd: 370 nM
